IC50 of dose-inhibition curve, whole-cell patch clamp of N-type Ca2+ current and recovery after washout (FIG. 5) data for two substances are collected here from patent US20100056456A1.

For the experiment, the target named is human N-type calcium channel (human) (UniProt Q00975). Briefly: cell-based or functional assay.
Sequence of human N-type calcium channel (human) (Q00975 whole entry): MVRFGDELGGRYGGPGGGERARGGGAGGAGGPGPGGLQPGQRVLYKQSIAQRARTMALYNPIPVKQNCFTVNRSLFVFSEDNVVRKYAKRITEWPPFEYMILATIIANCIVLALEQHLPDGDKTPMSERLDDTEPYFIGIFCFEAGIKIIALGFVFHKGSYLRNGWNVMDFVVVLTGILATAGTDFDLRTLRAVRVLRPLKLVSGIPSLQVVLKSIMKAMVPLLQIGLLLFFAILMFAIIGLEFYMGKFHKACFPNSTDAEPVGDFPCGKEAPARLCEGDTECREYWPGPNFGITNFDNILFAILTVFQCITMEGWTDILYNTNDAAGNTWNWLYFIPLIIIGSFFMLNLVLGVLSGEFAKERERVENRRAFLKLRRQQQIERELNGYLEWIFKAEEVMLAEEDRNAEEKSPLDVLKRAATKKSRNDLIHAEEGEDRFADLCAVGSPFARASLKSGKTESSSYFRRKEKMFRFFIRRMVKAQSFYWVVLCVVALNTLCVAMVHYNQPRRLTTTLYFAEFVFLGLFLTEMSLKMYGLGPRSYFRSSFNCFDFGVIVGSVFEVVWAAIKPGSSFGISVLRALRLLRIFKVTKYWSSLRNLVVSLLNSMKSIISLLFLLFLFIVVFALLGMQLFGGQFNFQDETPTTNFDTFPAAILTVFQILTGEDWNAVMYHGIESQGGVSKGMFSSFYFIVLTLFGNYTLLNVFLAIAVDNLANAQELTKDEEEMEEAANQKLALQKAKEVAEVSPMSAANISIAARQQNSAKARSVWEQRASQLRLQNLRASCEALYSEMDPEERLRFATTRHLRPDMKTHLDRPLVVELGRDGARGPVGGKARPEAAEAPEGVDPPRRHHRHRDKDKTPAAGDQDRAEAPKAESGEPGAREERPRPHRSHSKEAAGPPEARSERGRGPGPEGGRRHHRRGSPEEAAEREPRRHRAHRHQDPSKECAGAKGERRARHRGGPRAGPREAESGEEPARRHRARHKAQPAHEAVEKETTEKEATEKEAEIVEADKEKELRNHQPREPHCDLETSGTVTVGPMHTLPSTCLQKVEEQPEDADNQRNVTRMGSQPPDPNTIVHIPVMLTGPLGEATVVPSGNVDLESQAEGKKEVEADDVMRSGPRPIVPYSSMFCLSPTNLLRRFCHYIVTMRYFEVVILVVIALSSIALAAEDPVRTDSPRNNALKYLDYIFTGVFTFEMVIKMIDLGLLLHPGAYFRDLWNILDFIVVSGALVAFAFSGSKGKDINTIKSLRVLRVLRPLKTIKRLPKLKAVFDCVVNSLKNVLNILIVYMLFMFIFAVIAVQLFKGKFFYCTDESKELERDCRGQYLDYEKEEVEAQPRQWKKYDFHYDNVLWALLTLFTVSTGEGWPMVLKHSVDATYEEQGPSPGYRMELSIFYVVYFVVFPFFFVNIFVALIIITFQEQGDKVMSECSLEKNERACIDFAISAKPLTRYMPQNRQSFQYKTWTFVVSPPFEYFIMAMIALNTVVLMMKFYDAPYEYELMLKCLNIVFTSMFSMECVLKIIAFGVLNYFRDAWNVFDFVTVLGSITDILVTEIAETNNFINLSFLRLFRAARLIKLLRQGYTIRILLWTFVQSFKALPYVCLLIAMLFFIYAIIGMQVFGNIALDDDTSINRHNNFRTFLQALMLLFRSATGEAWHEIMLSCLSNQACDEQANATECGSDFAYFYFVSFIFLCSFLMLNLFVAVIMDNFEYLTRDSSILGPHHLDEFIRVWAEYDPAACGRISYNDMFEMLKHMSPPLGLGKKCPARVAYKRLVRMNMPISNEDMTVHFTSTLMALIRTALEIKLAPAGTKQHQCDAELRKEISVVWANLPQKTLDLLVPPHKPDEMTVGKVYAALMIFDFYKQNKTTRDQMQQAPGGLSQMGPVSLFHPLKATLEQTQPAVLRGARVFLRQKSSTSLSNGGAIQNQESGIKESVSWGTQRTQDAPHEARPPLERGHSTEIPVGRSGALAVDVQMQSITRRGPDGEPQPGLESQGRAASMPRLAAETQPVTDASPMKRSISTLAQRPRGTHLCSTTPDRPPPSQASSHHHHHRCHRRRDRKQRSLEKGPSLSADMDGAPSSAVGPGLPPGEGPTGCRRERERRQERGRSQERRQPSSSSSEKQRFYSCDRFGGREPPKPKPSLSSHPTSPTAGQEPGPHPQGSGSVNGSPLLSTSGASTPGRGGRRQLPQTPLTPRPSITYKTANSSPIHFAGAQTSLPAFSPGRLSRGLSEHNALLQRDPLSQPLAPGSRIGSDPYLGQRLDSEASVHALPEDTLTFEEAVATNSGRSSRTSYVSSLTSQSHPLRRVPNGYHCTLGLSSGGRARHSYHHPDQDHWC

In the case of ω-conotoxin FVIA (peptide), the IC50 of dose-inhibition curve, whole-cell patch clamp of N-type Ca2+ current turned out to be 11.5 nM and the recovery after washout (FIG. 5) is 75%.
The matching figures for ω-conotoxin MVIIA (peptide): 7.96 nM and 35%.
